The target of experiment [1] is 35S-labeled hamster PrPsen, glycophosphoinositol-negative form (35S-HaPrPsen) (Syrian golden hamster) (UniProt P04273). The experiment is described as follows: cell-based or functional assay.
For another experiment, the target named is murine PrPsen (mouse) (UniProt P04925). Description: cell-based or functional assay.

hamster PrP synthetic peptide P115-141: the IC50 of the conversion reaction in experiment [1] was 40 µM.

For the substance Mo3F4P109-141 (peptide), the IC50 of murine PrP conversion with murine PrPsen (mouse) is 50 µM.

Take hamster PrP synthetic peptide P113-141: the IC50 of the in vitro conversion in experiment [1] stood at 40 µM.

As to hamster PrP synthetic peptide P119-136, in experiment [1], the IC50 of the conversion reaction is less than 100 µM.

In experiment [1], hamster PrP synthetic peptide P117-141 gave an IC50 of the conversion reaction of 80 µM.

On to hamster PrP synthetic peptide P119-141, for which the IC50 of the conversion reaction in experiment [1] is 120 µM.

Take MoP109-141 (peptide): the IC50 of murine PrP conversion with murine PrPsen (mouse) was found to be 50 µM. Moreover, the IC50 of the hamster PrP conversion reaction in experiment [1] turned out to be 70 µM.

With hamster PrP synthetic peptide P119-128, in experiment [1], the IC50 of the conversion reaction was found to be 550 µM.

For the origin of these results see patent US20010041790A1.
